The values below are quoted from earlier work in publication PMC8690575.

A word on the Kd: it is the constant that tells how readily two partners part at equilibrium.

This data set has as its target Rhodopsin (Mus musculus) (UniProt P15409).

On to Arrestin-1 (from UniProt P20443), for which the Kd was 150 µM.
